Test results: patent publication US20180243408A1

Assays:
[1] = molecular target: component of tight junctions expressed by L-cells; assay: flow cytometry on L cells, 20 µg Arah2-pσ1, detected with anti-pσ1 rabbit serum and FITC-labeled anti-rabbit
Arah2-pσ1 fusion protein [2] = assay: flow cytometry; control serum in place of anti-pσ1 serum on HeLa cells stained with Arah2-pσ1, FITC-labeled anti-rabbit
Arah2-pσ1 fusion protein [3] = assay: flow cytometry; control serum in place of anti-pσ1 serum on L cells stained with Arah2-pσ1, FITC-labeled anti-rabbit

| Substance | MFI [1] | MFI (Arah2-pσ1 fusion protein [2]) | MFI (Arah2-pσ1 fusion protein [3]) |
| --- | --- | --- | --- |
| Arah2-pσ1 fusion protein | 1880 MFI |  |  |
| normal rabbit serum |  | 26 MFI | 32 MFI |
